Reference: paper PMC12520357 (2025)

B1: Reg1-FLAG (wild type) [S. cerevisiae] / Glc7-GFP [S. cerevisiae] (parent complex)
chain 1: MSTNLANYFAGKKDIENEHVNRNASHESNSKSDVKISGNDNDNDEDMGPSVSMAVQAKNDDDFHKSTFNLKRTRSMGLLDEYIDPTKKLLGRSDDLYDNDNEYYDNSSNNSSSNSSDDDYDDGYQEHSTSVSPPPADNDSYLIPQDDNDVVVEPERHVDYLSHEWKESEISNSWKYIILKKKKRDVDLVNAARLENASWRTWAKARNNLKTVSPEVVNWSKDSDVTWLYGPIVRDSEGNAQSEEEHDLERGYGSDDENSKRISMPTKNSKSIAAAPKPILKKRTVTEIIEDNALWKLNEARKHMTEMKHASVIMDPNGNKNVHDDFDALAAQVNAQYYHYPKESNSSVSLKSQHSDKKDNSTIPNPVGENSNGGGDKGEEDLHLKSALHVQNNRSTAQSNKSILENSTNDRKANLDQNLNSPDNNRFPSSTSSSNRDNENNSMGLSSILTSNPSEKSNKPTKNRHIHFNDRVEQCMALRYPASQSEDDESDDENKQYVDVNNNANVTTINNNRTPLLAIQHKSIPINSATEHLNKNTSDDDTSSQSSSSSHSDDEEHGGLYINARFSRRSDSGVHSPITDNSSVASSTTSRAHVRPIIKLLPDTTLNYGSDEESDNGEFNGYGNAVSHNVNTSRGYDYIYDYNSVYTGDTSSFLPVDSCDIVDVPEGMDLQTAIADDNASNYEFNNAVESKEKHVPQLHKASANNTTRQHGSHMLLYDDDNYSSSSDSEQQFIEDSQYNSSDDEEEEDDDDQEVDDNHDEGLSLRRTLSLGKSGSTNSLYDLAQPSLSSATPQQKNPTNFTGGKTDVDKDAQLAVRPYPLKRNSSSGNFIFNSDSEEESSSEEEQRPLPANSQLVNRSVLKGSVTPANISSQKKKALPKQPKASDSSQSFRIVNNTPSPAEVGASDVAIEGYFSPRNESIKSVVSGGNMMDHQDHSEMDTLAKGFENCHINNASKLKDKKVDSVQTTRKEASLTDSSNESLHKVVQNARGMASKYLHSWKKSDVKPQENGNDSS
chain 2: MDSQPVDVDNIIDRLLEVRGSKPGQQVDLEENEIRYLCSKARSIFIKQPILLELEAPIKICGDIHGQYYDLLRLFEYGGFPPESNYLFLGDYVDRGKQSLETICLLLAYKIKYPENFFILRGNHECASINRIYGFYDECKRRYNIKLWKTFTDCFNCLPIAAIIDEKIFCMHGGLSPDLNSMEQIRRVMRPTDIPDVGLLCDLLWSDPDKDIVGWSENDRGVSFTFGPDVVNRFLQKQDMELICRAHQVVEDGYEFFSKRQLVTLFSAPNYCGEFDNAGAMMSVDESLLCSFQILKPAQKSLPRQAGGRKKK
B2: Reg1-FLAG (wild type) [S. cerevisiae] / Snf1-GFP [S. cerevisiae] (parent complex)
chain 1: B1 chain 1
chain 2: MSSNNNTNTAPANANSSHHHHHHHHHHHHHGHGGSNSTLNNPKSSLADGAHIGNYQIVKTLGEGSFGKVKLAYHTTTGQKVALKIINKKVLAKSDMQGRIEREISYLRLLRHPHIIKLYDVIKSKDEIIMVIEYAGNELFDYIVQRDKMSEQEARRFFQQIISAVEYCHRHKIVHRDLKPENLLLDEHLNVKIADFGLSNIMTDGNFLKTSCGSPNYAAPEVISGKLYAGPEVDVWSCGVILYVMLCRRLPFDDESIPVLFKNISNGVYTLPKFLSPGAAGLIKRMLIVNPLNRISIHEIMQDDWFKVDLPEYLLPPDLKPHPEEENENNDSKKDGSSPDNDEIDDNLVNILSSTMGYEKDEIYESLESSEDTPAFNEIRDAYMLIKENKSLIKDMKANKSVSDELDTFLSQSPPTFQQQSKSHQKSQVDHETAKQHARRMASAITQQRTYHQSPFMDQYKEEDSTVSILPTSLPQIHRANMLAQGSPAASKISPLVTKKSKTRWHFGIRSRSYPLDVMGEIYIALKNLGAEWAKPSEEDLWTIKLRWKYDIGNKTNTNEKIPDLMKMVIQLFQIETNNYLVDFKFDGWESSYGDDTTVSNISEDEMSTFSAYPFLHLTTKLIMELAVNSQSN

Variants of: B1
Test: co-immunoprecipitation (anti-FLAG IP, immunoblot quantification); n = 3; reg1Δ Snf1-GFP Glc7-GFP cells; parent: 1; read off a plot

ratio to parent	Variant
~0.66	chain 1 W165G
~0.81	chain 1 P231S
~1.5	chain 1 N624S
~0.8	chain 1 P278Q
~0.93	chain 1 A54T

Variants of: B2
Test: as above

ratio to parent	Variant
~0.95	chain 1 P278Q
~0.74	chain 1 N624S
~0.8	chain 1 W165G
~0.84	chain 1 A54T
~1.1	chain 1 P231S
